Experimental data: US7442159

Legend:
[1] = molecular target: Stoffel fragment of Thermus aquaticus DNA polymerase I fused to p3, displayed on phage (pHEN1-Stoffel) (Thermus aquaticus; filamentous bacteriophage) (UniProt P19821); experiment: phage ELISA, plate coated with anti-Taq antibody, anti-M13-HRP detection; 10^7 phage particles of clone 10 (selected leader)
[2] = molecular target: Stoffel fragment of Thermus aquaticus DNA polymerase I fused to p3, displayed on phage (pHEN1-Stoffel) (Thermus aquaticus; filamentous bacteriophage) (UniProt P19821); experiment: phage ELISA, plate coated with anti-Taq antibody, anti-M13-HRP detection; 10^9 phage particles of the pelB leader phagemid pHEN1-Stoffel

Chain of UniProt P19821 (P19821 290-832 limits assumed): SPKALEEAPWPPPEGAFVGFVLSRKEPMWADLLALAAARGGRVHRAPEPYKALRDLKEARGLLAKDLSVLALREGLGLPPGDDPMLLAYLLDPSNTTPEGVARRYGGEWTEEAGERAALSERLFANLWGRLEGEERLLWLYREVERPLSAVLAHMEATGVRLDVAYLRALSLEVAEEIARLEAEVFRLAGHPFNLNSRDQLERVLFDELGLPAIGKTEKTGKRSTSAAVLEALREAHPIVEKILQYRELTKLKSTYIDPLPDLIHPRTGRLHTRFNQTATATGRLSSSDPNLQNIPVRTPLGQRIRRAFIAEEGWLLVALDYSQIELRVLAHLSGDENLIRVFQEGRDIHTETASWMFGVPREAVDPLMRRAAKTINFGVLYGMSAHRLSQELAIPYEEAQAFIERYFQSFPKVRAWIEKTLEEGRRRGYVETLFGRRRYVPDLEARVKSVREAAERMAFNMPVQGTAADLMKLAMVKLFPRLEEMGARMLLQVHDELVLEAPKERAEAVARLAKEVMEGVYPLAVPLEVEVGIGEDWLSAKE

- signal to noise ratio [1]: 1.47
- signal to noise ratio [2]: 1.46
Substance: anti-Taq antibody (Taqstart, Clontech)
